According to patent publication US20250009876A1 (H LUNDBECK A S, published 2025):
Residue numbers refer to the chain shown, from its start.

B1: Ab10.H (antibody, human IgG1, kappa, N297A)
heavy: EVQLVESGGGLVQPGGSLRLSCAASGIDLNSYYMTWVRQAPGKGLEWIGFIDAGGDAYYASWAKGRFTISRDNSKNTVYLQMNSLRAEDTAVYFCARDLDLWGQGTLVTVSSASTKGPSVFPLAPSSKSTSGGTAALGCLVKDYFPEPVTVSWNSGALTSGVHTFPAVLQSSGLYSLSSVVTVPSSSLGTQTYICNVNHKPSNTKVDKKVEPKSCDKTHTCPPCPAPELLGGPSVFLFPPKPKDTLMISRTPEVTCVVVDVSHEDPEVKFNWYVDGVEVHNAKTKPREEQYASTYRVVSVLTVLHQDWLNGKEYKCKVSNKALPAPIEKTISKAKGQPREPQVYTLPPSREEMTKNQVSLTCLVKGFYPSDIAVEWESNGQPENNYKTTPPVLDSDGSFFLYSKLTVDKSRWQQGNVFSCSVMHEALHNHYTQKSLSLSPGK
light: DAQLTQSPSTLSASVGDRVTITCQSSESVYGNYLAWFQQKPGKAPKFLIYEASKLESGVPSRFSGSGSGTEFTLTISSLQPDDFATYYCAGGDISEGVAFGGGTKVEIKRTVAAPSVFIFPPSDEQLKSGTASVVCLLNNFYPREAKVQWKVDNALQSGNSQESVTEQDSKDSTYSLSSTLTLSKADYEKHKVYACEVTHQGLSSPVTKSFNRGEC
notes: Full-length humanized variant of Ab10
B2: Ab10 (antibody, human IgG1, kappa, N297A, V domains shown)
VH: QSVEESGGRLVTPGTPLTLTCTVSGIDLNSYYMTWVRQAPGKGLEWIGFIDAGGDAYYASWAKGRFTISKTSTTVDLKITSPTTEDTATYFCARDLDLWGQGTLVTVSS
VL: AAVLTQTPSPVSAAVGGTVTINCQSSESVYGNYLAWFQQKPGQPPKLLIYEASKLESGVPSRFSGSGSGTQFTLTISDLQCDDAATYYCAGGDISEGVAFGGGTEVVVKR
notes: Full-length anti-PACAP antibody; rabbit variable regions cloned onto human constant regions (rabbit/human chimeric), expressed in HEK-293
B3: Ab20 (antibody, human IgG1, kappa, N297A, V domains shown)
VH: B2 VH with N29S, T34S, A52T, G53D, D55S, S60T, Q101P
VL: B2 VL with T20S, N22S, G31S, L47F, E56A, S64K, L79V, A85G, D93Y, I94S
notes: Full-length anti-PACAP antibody; rabbit/human chimeric

Assays:
[1] = molecular target: T1, PACAP38 (Pituitary Adenylate Cyclase-Activating Polypeptide, 38 amino acids) (human, not fully specified; the C-terminal lysine is amidated); assay: inhibition of 30 nM biotinylated PACAP38 binding to PAC1-R-expressing PC-12 cells, Eu-streptavidin TRF
T1 construct: In the HTRF and PC-12 cell assays the peptide was N-terminally or C-terminally biotinylated; unlabelled in SPR; also called human PACAP38; huPACAP (1-38)
T1 peptide: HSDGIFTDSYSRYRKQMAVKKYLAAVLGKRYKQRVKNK
Experimental: (§1) To identify antibodies that block PACAP38 binding to PAC1-R-expressing cells, adherent PC-12 cells (ATCC, Manassas, VA) expressing PAC1-R were used in a Europium-based PAC1-R-expressing cells binding assay. Antibody solutions were incubated with N-terminal biotinylated PACAP38 at 10× the final concentration (100 nM or 30 nM) for 1 hr, then added to PC-12 cells that were plated 24 hrs prior in black clear bottom 96 well plates (COSTAR™, Corning Incorporated, Corning, NY) and further incubated for 1 hr at room temperature. After three washes, the cells were incubated with 20 μl Europium-labeled streptavidin (PerkinElmer, Waltham, MA) for 1 hr at room temperature. Cells were washed three times, then 20 μl DELFIA® Enhancement solution (PerkinElmer, Waltham, MA) was added to each well and incubated for 15 minutes with gentle shaking. Plates were read (Time Resolved Fluorescence (“TRF”)) on SPECTRAMAX® (Molecular Devices, Sunnyvale, CA) plate reader.
(§2) FIGS. 14A-14H are representative of the inhibition curves obtained by this method (results are shown for Ab10, Ab20, Ab21, Ab1.H, Ab10.H, Ab21.H, Ab22, and Ab23, respectively) wherein the PAC1-R expressing cells were PC-12 cells.

[2] = molecular target: T2, VIP (Vasoactive Intestinal Peptide) (human); assay: SPR (ProteOn XPR36), antibody amine-coupled, peptide analyte, 1:1 Langmuir fit
T2 construct: also called human VIP
T2 peptide: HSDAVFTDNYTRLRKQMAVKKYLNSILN

[3] = molecular target: T3, PACAP27 (Pituitary Adenylate Cyclase-Activating Polypeptide, 27 amino acids) (human, the C-terminal leucine is amidated); assay: inhibition of 0.1 nM 125I-PACAP27 binding to membranes with human PAC1-R long isoform, filter binding
T3 construct: also called human PACAP27
T3 peptide: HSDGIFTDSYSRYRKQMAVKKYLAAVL
Experimental: To identify antibodies that block PACAP27 binding to PAC1-R, antibodies at an initial concentration of 30 nM were diluted in incubation buffer (50 mM Hepes pH 7.4, 1 mM CaCl₂, 5 mM MgCl₂, 0.2% BSA) and serial 1:3 dilutions were performed. Antibody dilutions (30 nM, 10 nM, 3 nM, 1 nM, 0.3 nM, 0.1 nM, 0.03 nM, 0.01 nM, 0.003 nM and 0.001 nM) were then mixed and pre-incubated at 25° C. for 30 minutes with 0.1 nM of ¹²⁵I-labelled PACAP27 in incubation buffer. The antibody: ¹²⁵I-labelled PACAP27 mixture was then added to 0.5 μg aliquots of cell membranes derived from Chem-1 cells expressing human recombinant PAC1-R long isoform in incubation buffer. The mixture was then incubated for 1 hour at 25° C. Following incubation, the samples were filtered and washed. Afterward, the filters were counted to quantitate ¹²⁵I-labelled PACAP27. As an experimental control, non-specific binding to the cell membranes was estimated using 0.1 μM of […] PACAP27.

[4] = molecular target: T2, VIP (Vasoactive Intestinal Peptide); assay: SPR (ProteOn XPR36), antibody amine-coupled, peptide analyte, 1:1 Langmuir fit; SPR, direct binding of VIP to the antibody; weak, KD 2.8E-07 M
[5] = molecular target: T1, PACAP38 (Pituitary Adenylate …); assay: HTRF binding assay, antibody dilution series on 35 nM biotinylated PACAP38
Experimental: In parallel, 10 μl of an antibody dilution series (highest final concentration of 100 nM) were incubated with 10 μl of N-terminal or C-terminal biotinylated PACAP38 (35 nM final) alone, or in combination with either PACAP27 (350 nM final) or VIP (350 nM final), i.e., 10× PACAP27 or 10× VIP, respectively, in a HTRF plate. 20 μl of Eu³⁺ cryptate labeled anti-hu Fc donor and 20 μl of d2-labeled streptavidin acceptor were added to each well and incubated for 1 hour at room temperature. Fluorescence was measured at 620 and 665 nm with a delay of 300 usec.
EC₅₀ values, i.e. the concentration of an antibody that yields a response halfway between the baseline and the maximum value within a specified time period, were computed for each antibody based upon their binding curves and are shown in Table 1 below. […] A humanized form of antibody Ab1 identified by an appended “.H”, i.e., Ab1.H also bound PACAP38 with high affinity.

[6] = molecular target: T1, PACAP38 (Pituitary Adenylate …); assay: inhibition of 100 nM biotinylated PACAP38 binding to PAC1-R-expressing PC-12 cells, Eu-streptavidin TRF
Experimental: as §1, §2

[7] = molecular target: T2, VIP (Vasoactive Intestinal Peptide); assay: SPR (ProteOn XPR36), antibody amine-coupled, peptide analyte, 1:1 Langmuir fit; SPR, direct binding of VIP to the antibody; weak, KD 1.1E-06 M

Binder	IC50 [1] [nM]	Kd [2] [nM]	koff [2] [s⁻¹]	kon [2] [M⁻¹ s⁻¹]	IC50 [3] [nM]	Kd [4] [nM]	koff [4] [s⁻¹]	kon [4] [M⁻¹ s⁻¹]	EC50 [5] [nM]	IC50 [6] [nM]	Kd [7] [nM]	koff [7] [s⁻¹]	kon [7] [M⁻¹ s⁻¹]
B1	14.5	100	0.039	380000	0.22								
B2						280	0.01	37000	0.36	17.8			
B3									0.38	32.7	1100	0.48	450000
